Positions count from the first letter of the chain named. Several values for one entry are separate records, joined by “and”; a condition that tells them apart may be missing. Identical values can stand only once. Each block holds one binder with its values, some of them ahead of it.
Assays:
Human trkC (KIRA assay) [1] = molecular target: T1, Human trkC (KIRA assay) (human, UniProt Q16288 32-839, limits assumed); test: cell-based or functional assay
[2] = molecular target: Rat trkC on trigeminal neurons (rat, UniProt Q03351 32-864); test: cell-based or functional assay
Rat trkB = molecular target: T2, Rat trkB (rat, UniProt Q63604 32-429, limits assumed); test: BIAcore SPR
T2 construct: BIAcore essentially as for trkC; construct not described

Rat trkA = molecular target: T3, Rat trkA (rat, UniProt P35739 33-418, limits assumed); test: BIAcore SPR
T3 construct: BIAcore essentially as for trkC; construct not described

Human trkB = molecular target: T4, Human trkB (human, UniProt Q16620 32-430, limits assumed); test: BIAcore SPR
T4 construct: BIAcore essentially as for trkC; construct not described

Human trkA = molecular target: T5, Human trkA (human, UniProt P04629 33-423, limits assumed); test: BIAcore SPR
T5 construct: BIAcore essentially as for trkC; construct not described

[3] = molecular target: T6, Human trkC-Fc fusion protein (human, UniProt Q16288 32-429); test: BIAcore SPR, Fab over immobilised human trkC-Fc
T6 construct: Immobilised on CM5 chip for BIAcore; also called htrkC; not shown: Fc part not described
Description: (§1) Affinities of anti-trkC Fabs and monoclonal antibodies were determined using the BIAcore 3000™ surface plasmon resonance (SPR) system (BIAcore, INC, Piscaway N.J.). CM5 chips were activated with N-ethyl-N′-(3-dimethylaminopropyl)-carbodiimide hydrochloride (EDC) and N-hydroxysuccinimide (NHS) according to the supplier's instructions. Human or rat trkC-Fc fusion protein was diluted into 10 mM sodium acetate pH 5.0 and injected over the activated chip at a concentration of 0.005 mg/mL. Using variable flow time across the individual chip channels, two ranges of antigen density were achieved: 200-400 response units (RU) for detailed kinetic studies and 500-1000 RU for screening assays. The chip was blocked with ethanolamine. […] HBS-EP buffer (0.01M HEPES, pH 7.4, 0.15 NaCl, 3 mM EDTA, 0.005% Surfactant P20) was used as running buffer for all the BIAcore assays. […] The concentrations of the Fab proteins are determined by ELISA and/or SDS-PAGE electrophoresis using a Fab of known concentration (as determined by amino acid analysis) as a standard. Kinetic association rates (kₒₙ) and dissociation rates (koff) are obtained simultaneously by fitting the data to a 1:1 Langmuir binding model (Karlsson, R. Roos, H. Fagerstam, L. Petersson, B. (1994). Methods Enzymology 6. 99-110) using the BlAevaluation program. Equilibrium dissociation constant (KD) values are calculated as koff/kₒₙ.
(§2) We prepared antibody clones bearing the CDR and/or framework region substitution mutations shown in Table 1 and determine KD and other kinetic parameters using BIAcore analysis as described herein.

[4] = molecular target: T7, Rat trkC-Fc fusion protein (rat, UniProt Q03351 32-429); test: BIAcore SPR, Fab over immobilised rat trkC-Fc
T7 construct: Immobilised on CM5 chip for BIAcore; not shown: Fc part not described
Description: as §1

[5] = molecular target: T6, Human trkC-Fc fusion protein; test: BIAcore SPR, human trkC-Fc on chip; KD calculated from koff with 2256 kon 5E5 1/Ms
[6] = molecular target: T6, Human trkC-Fc fusion protein; test: BIAcore SPR
[7] = molecular target: T6, Human trkC-Fc fusion protein; test: BIAcore SPR, Fab on human trkC
Description: as §1, §2

Human trkC (KIRA assay) [8] = molecular target: T1, Human trkC (KIRA assay); test: cell-based or functional assay; remark: listed apart in the source
[9] = molecular target: T6, Human trkC-Fc fusion protein; test: BIAcore SPR; value used in the footnote to calculate KD of the mutants

T1 sequence (Q16288 32-839 limits assumed): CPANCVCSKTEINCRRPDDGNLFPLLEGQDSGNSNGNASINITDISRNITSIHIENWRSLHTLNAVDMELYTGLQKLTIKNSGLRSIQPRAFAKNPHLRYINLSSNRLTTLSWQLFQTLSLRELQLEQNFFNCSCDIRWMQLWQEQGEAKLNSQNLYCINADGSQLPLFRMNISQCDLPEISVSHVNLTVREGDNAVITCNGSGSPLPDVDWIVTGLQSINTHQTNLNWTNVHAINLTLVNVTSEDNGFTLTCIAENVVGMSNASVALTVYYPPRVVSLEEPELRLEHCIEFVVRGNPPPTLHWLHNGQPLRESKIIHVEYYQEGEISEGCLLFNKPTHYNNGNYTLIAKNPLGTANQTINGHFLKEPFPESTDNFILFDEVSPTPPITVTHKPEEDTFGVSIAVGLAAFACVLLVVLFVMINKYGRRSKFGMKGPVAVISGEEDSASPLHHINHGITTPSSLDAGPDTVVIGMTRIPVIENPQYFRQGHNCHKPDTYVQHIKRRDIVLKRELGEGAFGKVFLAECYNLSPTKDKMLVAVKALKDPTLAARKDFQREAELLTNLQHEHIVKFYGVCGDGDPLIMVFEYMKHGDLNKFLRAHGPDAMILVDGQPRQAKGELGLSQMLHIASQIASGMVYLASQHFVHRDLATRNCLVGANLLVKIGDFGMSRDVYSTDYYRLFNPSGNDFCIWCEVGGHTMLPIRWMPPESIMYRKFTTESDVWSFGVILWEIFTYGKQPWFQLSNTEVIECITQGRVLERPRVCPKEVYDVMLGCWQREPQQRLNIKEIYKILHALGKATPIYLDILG
Chain of Rat trkC on trigeminal neurons (Q03351 32-864): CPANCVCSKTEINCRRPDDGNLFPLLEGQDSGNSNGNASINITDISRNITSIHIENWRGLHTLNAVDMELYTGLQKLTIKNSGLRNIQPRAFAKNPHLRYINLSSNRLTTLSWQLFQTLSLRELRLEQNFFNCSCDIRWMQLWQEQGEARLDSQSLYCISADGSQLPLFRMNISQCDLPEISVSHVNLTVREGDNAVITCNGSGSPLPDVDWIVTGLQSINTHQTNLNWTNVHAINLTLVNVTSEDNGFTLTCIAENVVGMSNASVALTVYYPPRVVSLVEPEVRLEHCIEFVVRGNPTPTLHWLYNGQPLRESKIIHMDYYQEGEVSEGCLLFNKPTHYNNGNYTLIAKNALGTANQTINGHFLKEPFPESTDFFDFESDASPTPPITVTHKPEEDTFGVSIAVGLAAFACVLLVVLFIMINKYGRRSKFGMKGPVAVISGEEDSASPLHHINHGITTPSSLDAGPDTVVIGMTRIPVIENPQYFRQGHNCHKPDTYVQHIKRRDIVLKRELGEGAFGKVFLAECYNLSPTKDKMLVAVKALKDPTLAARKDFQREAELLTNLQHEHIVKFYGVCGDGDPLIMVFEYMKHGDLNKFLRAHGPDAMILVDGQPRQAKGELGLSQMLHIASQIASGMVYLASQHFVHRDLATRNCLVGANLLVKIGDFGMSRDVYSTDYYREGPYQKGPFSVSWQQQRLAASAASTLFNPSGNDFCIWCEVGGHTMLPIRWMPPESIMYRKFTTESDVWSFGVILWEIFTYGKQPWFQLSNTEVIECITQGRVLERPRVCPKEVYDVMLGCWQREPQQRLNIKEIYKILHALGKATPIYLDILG
T3 sequence (P35739 33-418 limits assumed): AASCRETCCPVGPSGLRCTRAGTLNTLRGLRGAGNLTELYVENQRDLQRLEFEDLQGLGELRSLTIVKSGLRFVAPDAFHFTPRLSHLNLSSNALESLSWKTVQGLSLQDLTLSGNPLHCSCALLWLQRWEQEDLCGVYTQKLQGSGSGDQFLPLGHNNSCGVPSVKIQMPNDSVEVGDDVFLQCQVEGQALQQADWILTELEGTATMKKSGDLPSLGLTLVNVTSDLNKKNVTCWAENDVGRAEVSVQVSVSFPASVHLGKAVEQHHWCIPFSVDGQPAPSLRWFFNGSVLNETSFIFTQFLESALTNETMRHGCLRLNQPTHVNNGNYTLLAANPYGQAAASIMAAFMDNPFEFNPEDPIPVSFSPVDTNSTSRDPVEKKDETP
T4 sequence (Q16620 32-430 limits assumed): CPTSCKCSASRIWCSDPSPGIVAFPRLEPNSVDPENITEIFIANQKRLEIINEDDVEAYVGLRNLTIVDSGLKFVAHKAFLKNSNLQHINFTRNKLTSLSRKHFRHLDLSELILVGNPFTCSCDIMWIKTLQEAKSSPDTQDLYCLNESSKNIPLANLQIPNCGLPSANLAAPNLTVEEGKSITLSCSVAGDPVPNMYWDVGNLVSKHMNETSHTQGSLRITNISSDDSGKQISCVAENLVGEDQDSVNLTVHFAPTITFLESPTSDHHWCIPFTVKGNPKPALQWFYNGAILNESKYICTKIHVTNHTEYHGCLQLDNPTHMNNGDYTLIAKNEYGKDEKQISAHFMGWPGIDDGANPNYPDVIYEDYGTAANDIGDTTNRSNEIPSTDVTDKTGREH
T2 sequence (Q63604 32-429 limits assumed): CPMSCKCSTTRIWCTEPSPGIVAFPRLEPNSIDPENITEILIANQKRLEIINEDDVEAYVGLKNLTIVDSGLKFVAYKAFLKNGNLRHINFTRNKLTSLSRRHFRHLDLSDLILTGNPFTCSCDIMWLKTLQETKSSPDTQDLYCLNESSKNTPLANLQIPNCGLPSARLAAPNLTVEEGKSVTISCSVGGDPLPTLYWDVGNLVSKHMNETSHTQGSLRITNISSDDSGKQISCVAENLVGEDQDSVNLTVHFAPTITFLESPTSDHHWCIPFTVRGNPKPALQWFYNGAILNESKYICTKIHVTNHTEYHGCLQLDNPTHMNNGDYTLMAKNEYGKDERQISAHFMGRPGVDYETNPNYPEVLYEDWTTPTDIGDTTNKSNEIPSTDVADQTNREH
T5 sequence (P04629 33-423 limits assumed): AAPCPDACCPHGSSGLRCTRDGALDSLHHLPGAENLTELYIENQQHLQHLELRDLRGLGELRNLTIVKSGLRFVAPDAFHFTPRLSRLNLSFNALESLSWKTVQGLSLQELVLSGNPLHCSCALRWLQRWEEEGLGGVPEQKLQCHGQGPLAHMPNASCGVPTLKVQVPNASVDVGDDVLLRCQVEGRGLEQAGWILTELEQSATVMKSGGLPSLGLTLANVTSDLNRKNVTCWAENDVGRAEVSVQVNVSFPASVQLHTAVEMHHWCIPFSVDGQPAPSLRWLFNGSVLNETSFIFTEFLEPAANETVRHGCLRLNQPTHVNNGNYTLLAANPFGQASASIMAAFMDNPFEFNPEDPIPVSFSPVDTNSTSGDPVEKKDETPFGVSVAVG

B1: Antibody A5, full IgG (antibody, V domains shown)
VH: QVQLVQSGAEVKKPGASVKVSCKASGYTFTSYRIHWVRQAPGQGLEWMGEIYPSNARTNYNEKFKSRVTMTRDTSTSTVYMELSSLRSEDTAVYYCARKYYYGNTRRSWYFDVWGQGTTVTVSS
VL: DIQMTQSPSSLSASVGDRVTITCRASESIDNYGISFLAWYQQKPGKAPKLLIYAASNRGSGVPSRFSGSGSGTDFTFTISSLQPEDIATYYCQQSKTVPRTFGQGTKLEIKR
- EC50 (read off the curve), KIRA (Human trkC (KIRA assay) [1]): ~0.1 nM
- EC50, neuron survival [2]: 0.001 nM
- binding result (Rat trkB): no binding
- binding result (Rat trkA): no binding
- binding result (Human trkB): no binding
- binding result (Human trkA): no binding

B3: Fab A5, clone 129(T8)(H8xE10)(10B)(A5) (Fab, V domains shown)
VH: QVQLVQSGAEVKKPGASVKVSCKASGYTFTSYRIHWVRQAPGQGLEWMGEIYPSNARTNYNEKFKSRVTMTRDTSTSTVYMELSSLRSEDTAVYYCARKYYYGNTRRSWYFDVWGQGTTVTVS
VL: B1 VL
notes: purified on Ni-NTA; also called A5 (Fab)
- Kd [3]: 0.28 nM
- koff [3]: 0.00037 s⁻¹
- kon [3]: 1.3e+06 M⁻¹ s⁻¹
- Kd [4]: 19 nM
- koff [4]: 0.0267 s⁻¹
- kon [4]: 1.3e+06 M⁻¹ s⁻¹
- fold improvement of affinity over parent antibody 2256 [6]: 200 fold
- Kd [7]: 0.28 nM
- koff [7]: 0.00037 s⁻¹

B4: Fab clone 129(T8)(H8xE10) (Fab, V domains shown)
VH: B3 VH with A56S, V68A, R72G, T74K, T105S
VL: B1 VL
- koff [3]: 0.001 s⁻¹
- koff [4]: 0.09 s⁻¹
- Kd [5]: 2 nM

B5: Fab clone 129(T8)(H8xE10)(4B) (Fab, V domains shown)
VH: B3 VH with A56S, R72G, T105S
VL: B1 VL
- koff [3]: 0.002 s⁻¹
- koff [4]: 0.0289 s⁻¹ and 0.0627 s⁻¹
- Kd [5]: 4 nM

B7: Fab 2256 (parent) (Fab, V domains shown)
VH: QVQLQQPGAELVKPGASVKLSCKASGYTFTSYWMHWVKQRPGQGLEWIGEIYPSNGRTNYNEKFKSKATLTVDKSSSTAYMQLSSLTSEDSAVYYCARKYYYGNSYRSWYFDVWGAGTTLTVS
VL: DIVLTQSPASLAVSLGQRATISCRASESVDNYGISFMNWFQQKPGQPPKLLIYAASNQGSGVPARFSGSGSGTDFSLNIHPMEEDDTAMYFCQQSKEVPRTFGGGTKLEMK
- kon [9]: 500000 M⁻¹ s⁻¹
- Kd [7]: 40 nM
- koff [7]: 0.02 s⁻¹

Second part, led by results:

- koff [3]: 0.0008 s⁻¹
- koff [4]: 0.01 s⁻¹
- Kd [5]: 1.6 nM
B2: Fab clone 129(T8)(H8xE10)(10B) (Fab, V domains shown)
VH: B3 VH with A56S, T105S
VL: B1 VL

- EC50, KIRA assay (Human trkC (KIRA assay) [8]): ~40 nM
- Kd [6]: ~62 nM
B6: Mouse monoclonal agonist anti-trkC antibody 2256 (antibody, V domains shown)
VH: B7 VH
VL: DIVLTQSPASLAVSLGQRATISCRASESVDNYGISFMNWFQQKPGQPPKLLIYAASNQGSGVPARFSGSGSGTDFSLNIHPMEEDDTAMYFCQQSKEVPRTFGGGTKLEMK
notes: Mouse monoclonal antibody
- EC50, rat trigeminal neuron survival assay [2]: ~5 nM
